Laboratory results from patent publication US20180105596A1 (ELSALYS BIOTECH, published 2018).
Positions count from the first letter of the chain named. Values belong to the binder of their own block, whether it stands above or below them.

Key:
[1] = biological target: T1, recombinant His-Strep tagged human Tyro3 extracellular domain (human, UniProt Q06418 41-429); assay: BLI (Octet K2), IgG on AHC tips, hTyro3 ECD analyte, 1:1 global fit; KD Error 9,68E-10
T1 construct: also called hTyro3 ECD; full Tyro3 ECD
T1 sequence: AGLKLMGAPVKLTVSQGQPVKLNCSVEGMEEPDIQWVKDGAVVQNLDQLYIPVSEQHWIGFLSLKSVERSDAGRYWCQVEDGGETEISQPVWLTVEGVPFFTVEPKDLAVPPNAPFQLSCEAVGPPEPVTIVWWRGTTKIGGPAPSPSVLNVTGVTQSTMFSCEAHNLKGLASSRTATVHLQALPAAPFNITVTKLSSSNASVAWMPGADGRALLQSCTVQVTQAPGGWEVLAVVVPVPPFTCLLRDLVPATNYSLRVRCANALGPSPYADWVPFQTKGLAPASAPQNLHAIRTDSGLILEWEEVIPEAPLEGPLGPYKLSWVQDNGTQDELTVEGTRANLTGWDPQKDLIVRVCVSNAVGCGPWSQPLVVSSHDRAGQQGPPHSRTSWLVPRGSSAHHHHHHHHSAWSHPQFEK
Procedure: (§1) Affinity determinations were performed using biolayer interferometry on an Octet K2 instrument (Pall/ForteBio) equipped with anti-Human Kinetics (AHC) disposable fiber-optic biosensor tips. All experiments were conducted at 30° C. in the recommended Fortebio running buffer (PBS with 0.1% (w/v) bovine serum albumin (BSA) and 0.02% (v/v) Tween_20). This buffer was also used for dilution of ligand (here the antibody) and of the analyte (here the extra cellular domain of human Tyro3 protein). Samples in a 96-well microplates (No. Black polypropylene low binding plates, Greiner Bio-One, Frickenhausen, Germany) were agitated at 1000 rpm. […] Between measurements, the anti-human Tyro3 biosensor surfaces were regenerated by exposing them to 3 cycles of 5 sec in 10 mM glycine, pH 1.5, followed by 5 sec in PBS. Association phase was measured for 300 seconds, dissociation phase depending on the interaction for 300 seconds depending on dissociation step. […] Affinity, association (kon) and dissociation rate constants (koff) for each antibody were calculated applying a 1:1 interaction model fitting global, Rmax linked by sensor) on the ForteBio data analysis software 9.0.

[2] = biological target: T1, recombinant His-Strep tagged human …; assay: BLI (Octet K2), 1:1 global fit; analyte concentration of this kobs not given
Procedure: Affinity determinations were performed using biolayer interferometry on an Octet K2 instrument (Pall/ForteBio) equipped with anti-Human Kinetics (AHC) disposable fiber-optic biosensor tips. All experiments were conducted at 30° C. in the recommended Fortebio running buffer (PBS with 0.1% (w/v) bovine serum albumin (BSA) and 0.02% (v/v) Tween_20). This buffer was also used for dilution of ligand (here the antibody) and of the analyte (here the extra cellular domain of human Tyro3 protein). Samples in a 96-well microplates (No. Black polypropylene low binding plates, Greiner Bio-One, Frickenhausen, Germany) were agitated at 1000 rpm. […] Between measurements, the anti-human Tyro3 biosensor surfaces were regenerated by exposing them to 3 cycles of 5 sec in 10 mM glycine, pH 1.5, followed by 5 sec in PBS. Association phase was measured for 300 seconds, dissociation phase depending on the interaction for 300 seconds depending on dissociation step. All measurements were corrected for baseline drift using the double reference substraction, that is to say by subtracting a control sensor without ligand exposed to each concentration of the extra cellular domain of human Tyro3 protein and a reference well with ligand submitted to running buffer only. Affinity, association (kon) and dissociation rate constants (koff) for each antibody were calculated applying a 1:1 interaction model fitting global, Rmax linked by sensor) on the ForteBio data analysis software 9.0.

[3] = biological target: T1, recombinant His-Strep tagged human …; assay: BLI (Octet K2), IgG on AHC tips, hTyro3 ECD analyte, 1:1 global fit; kon Error 1,63E+03
Procedure: as §1

[4] = biological target: T1, recombinant His-Strep tagged human …; assay: BLI (Octet K2), IgG on AHC tips, hTyro3 ECD analyte, 1:1 global fit; kdis(1/s); kdis Error 6,46E-05
Procedure: as §1

[5] = biological target: T2, cynomolgus Tyro3 ECD, His-Strep tagged; assay: sandwich ELISA, Strep-tagged cynomolgus Tyro3 ECD captured on StrepMAB plate, IgG 3-fold from 3 µg/mL, anti-human IgG1-HRP
T2 construct: also called cyno TYRO3 ECD 8hisstrep
T2 extracellular domain: T1 sequence with V67A, I191V, A309G, R376H
Procedure: [The procedure below names another species; the source lists this species under the same test.] (§2) A double sandwich ELISA was developed. This assay consisted in measuring the binding of the anti-Tyro3 antibodies to be tested on immobilized strep-tagged entire human Tyro3 ECD captured directly on ELISA plate pre-coated with an anti-strep mAb (StrepMAB-Immo coated microplates from IBA biotech). Briefly, the 96 wells of StrepMAB-Immo coated microplate were washed three times with 300 μL of the PBS Tween 0.2% (referred as ELISA washing solution). The capture of an excess of purified strep tagged hTyro3 ECD protein was achieved by a one hour incubation at room temperature. In these experiments, 3 μg of purified protein diluted in PBS, BSA 1% (referred as ELISA diluent solution) were immobilized per well. The wells were washed three times with 300 μL of the washing solution. The non-specific binding sites on the well surface were blocked during 60 min at room temperature with 200 μL/well of blocking solution (PBS, BSA 3%). The wells were washed five times with 300 μL of the washing solution. Then, 100 μl (in duplicates) of the different concentrations of anti-Tyro3 antibodies to be tested diluted in ELISA diluent solution, were added per well and allowed to incubate during 1 hour at room temperature. An Irrelevant control IgG2656 was also added in this experiment. For anti-Tyro3 antibodies in the ScFv format, experiments were performed with 6 concentrations in duplicates (FIG. 3A). For anti-Tyro3 antibodies in the IgG format, experiments were performed with 9 concentrations in duplicates (FIG. 3B). […] For IgGs experiments, starting concentration for first dilution was 3 μg/ml and then dilutions of 3 fold in the ELISA diluent solution were performed. The wells were washed five times with 300 μL of the washing solution. […] The mix was allowed to incubated 60 min at room temperature.

[6] = biological target: T3, recombinant human Tyro3 on transfected HEK293 cells (human, UniProt Q06418); assay: flow cytometry, 1 µg IgG per 5E5 live HEK293 cells, PE anti-human lambda
T3 construct: membrane receptor on HEK293 cells; untransfected HEK293 cells (endogenous Tyro3) serve as comparison; also called Tyro3-transfected cells
T3 sequence (receptor, looked up): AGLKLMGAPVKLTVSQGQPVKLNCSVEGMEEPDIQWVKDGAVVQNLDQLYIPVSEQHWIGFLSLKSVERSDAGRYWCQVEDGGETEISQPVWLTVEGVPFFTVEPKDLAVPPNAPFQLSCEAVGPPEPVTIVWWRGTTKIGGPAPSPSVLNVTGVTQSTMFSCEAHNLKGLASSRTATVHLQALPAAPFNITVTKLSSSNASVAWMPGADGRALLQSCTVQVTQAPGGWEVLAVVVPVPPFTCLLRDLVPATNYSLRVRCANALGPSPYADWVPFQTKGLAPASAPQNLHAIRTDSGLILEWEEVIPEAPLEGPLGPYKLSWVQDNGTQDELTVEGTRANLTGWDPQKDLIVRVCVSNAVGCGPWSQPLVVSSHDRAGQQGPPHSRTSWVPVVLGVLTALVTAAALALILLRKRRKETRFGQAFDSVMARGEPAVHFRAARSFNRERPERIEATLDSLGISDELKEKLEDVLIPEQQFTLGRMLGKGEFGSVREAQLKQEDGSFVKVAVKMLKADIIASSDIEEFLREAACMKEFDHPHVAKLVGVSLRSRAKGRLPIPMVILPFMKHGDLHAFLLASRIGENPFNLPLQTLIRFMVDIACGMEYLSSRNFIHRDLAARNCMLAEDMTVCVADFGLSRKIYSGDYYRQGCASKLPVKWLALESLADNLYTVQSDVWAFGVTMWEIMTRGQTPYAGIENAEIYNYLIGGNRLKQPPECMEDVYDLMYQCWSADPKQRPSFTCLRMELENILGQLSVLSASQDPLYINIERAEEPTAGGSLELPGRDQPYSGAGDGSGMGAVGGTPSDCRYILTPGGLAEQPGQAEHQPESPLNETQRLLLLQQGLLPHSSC
Procedure: FIG. 9: Binding of anti-Tyro3 IgGs in living cells. HEK293 cells transfected to express recombinant human Tyro3 and HEK293 untransfected cells were stained with the Live-Dead NIR dye and either incubated with the TYRO 3-specific MAB859 monoclonal antibody, its isotype control (upper panels) or to individual anti-Tyro3 IgG (middle and bottom panels). IgG isotype control is IGX2656. […] Data were acquired using an ARIA III flow cytometer (Becton Dickinson) and analyzed using the Kaluza software (Beckman Coulter). Histograms shown are restricted to live cells that show a characteristic size and granulometry of HEK293 cells. Anti-Tyro3 IgG Tyro3-specific binding is shown by fluorescence intensity increase of Tyro3-transfected cells (black line) compared to untransfected cells (grey line).
To determine the individual IgG ability to further bind Tyro3-transfected cells than untransfected cells, 5^E5 untransfected and Tyro3-transfected cells were exposed to Live-Dead NIR dye (Life Technologies, #L10119) and 1 μg of each IgX in PBS for 30 minutes at 4° C. […] Cells were washed and PE fluorescence of at least 10,000 live cells was immediately recorded on an ARIA III flow cytometer (Beckton Dickinson) (middle and bottom panels of FIG. 9). IgG ability to bind overexpressed Tyro3 was determined with overlay histograms showing PE expression profile of untransfected and Tyro3-transfected cell. […]

[7] = biological target: T1, recombinant His-Strep tagged human …; assay: sandwich ELISA, Strep-tagged hTyro3 ECD captured on StrepMAB plate, IgG 3-fold from 3 µg/mL, anti-human IgG1-HRP
Procedure: as §2

[8] = biological target: T1, recombinant His-Strep tagged human …; assay: BLI (Octet K2), IgG on AHC tips, hTyro3 ECD analyte, 1:1 global fit; KD Error 2,48E-09
Procedure: as §1

[9] = biological target: T1, recombinant His-Strep tagged human …; assay: BLI (Octet K2), IgG on AHC tips, hTyro3 ECD analyte, 1:1 global fit; kon Error 9,23E+02
Procedure: as §1

[10] = biological target: T1, recombinant His-Strep tagged human …; assay: BLI (Octet K2), IgG on AHC tips, hTyro3 ECD analyte, 1:1 global fit; kdis(1/s); kdis Error 1,11E-04
Procedure: as §1

[11] = biological target: T1, recombinant His-Strep tagged human …; assay: BLI (Octet K2), IgG on AHC tips, hTyro3 ECD analyte, 1:1 global fit; kon Error 1,05E+03
Procedure: as §1

[12] = biological target: T1, recombinant His-Strep tagged human …; assay: BLI (Octet K2), IgG on AHC tips, hTyro3 ECD analyte, 1:1 global fit; kdis(1/s); kdis Error 9,54E-05
Procedure: as §1

[13] = biological target: T1, recombinant His-Strep tagged human …; assay: BLI (Octet K2), IgG on AHC tips, hTyro3 ECD analyte, 1:1 global fit; KD Error 1,47E-09
Procedure: as §1

B1: IgG2410 (antibody, V domains shown)
VH: EVQLVQSGADVKKPGASLTISCQASGYTFTDYWISWVRQKPGKGLEWMGQIVPRASRTNYGPSFQGHVTISADRSTATAYLQWRSLEASDTAMYYCVRPYFQTSGGTIPEYYQHWGPGTLVTVSS
VL: SYELTQPPSVSVSPGQTARITCSGDALPKKYAYWYQQKSGQAPVLVIYEDEKRASGIPERFSGSSSGTMATLTISGAQVEDEADYYCYSQERNGNYAVFGGGTKLTVL
notes: also called IGX2410
Kd [1]: 58.9 nM
kobs [2]: 0.0145 s⁻¹
kon [3]: 120000 M⁻¹ s⁻¹
koff [4]: 0.00704 s⁻¹
binding result [5]: binds

B3: IgG2412 (antibody, V domains shown)
VH: B1 VH with Q50R, V52R, R54L, A55L, R57H, N59M, P99S, Y100W, F101L, Q102A
VL: B1 VL with E51A, A54V, Q90A, E91S, R92A, A97R
notes: also called IGX2412
kobs [2]: 0.0175 s⁻¹
Kd [8]: 135 nM
kon [9]: 67400 M⁻¹ s⁻¹
binding result [5]: binds
koff [10]: 0.0091 s⁻¹

Results, then the binder that gave them:

binding result [6]: binds
binding result [7]: binds
binding result [5]: binds
B2: IgG2717 (antibody, V domains shown)
VH: EVQLVQSGADVKKPGASLTISCQASGYTFTDYWISWVRQKPGKGLEWMGEIFLPPSTTVYGPSFQGHVTISADRSTATAYLQWRSLEASDTAMYYCVRQTRLTSGGTIPEYYQHWGPGTLVTVSS
VL: B1 VL with E51N, A54G, Q90K, E91S, R92P, N93E, A97M
notes: also called IGX2717

kon [11]: 97300 M⁻¹ s⁻¹
koff [12]: 0.00987 s⁻¹
EC50 (read off the curve) [7]: ~0.02 µg/mL
kobs [2]: 0.0342 s⁻¹
EC50 (read off the curve) [5]: ~0.02 µg/mL
Kd [13]: 101 nM
B4: IgG2413 (antibody, V domains shown)
VH: EVQLVQSGADVKKPGASLTISCQASGYTFTDYWISWVRQKPGKGLEWMGRIHTYQSSTRYGPSFQGHVTISADRSTATAYLQWRSLEASDTAMYYCVRHHSTTTANPYSSWGPGTLVTVSS
VL: B1 VL with E51D, A54L, Q90T, R92I
notes: also called IGX2413
